Measured values from patent US20260061042A1, “POLYNUCLEOTIDE COMPOSITIONS AND USES THEREOF” (Pfizer Inc., priority 2024, published 2026).

B1: PapG^LD N96S WTv1: WT PapG lectin domain (V1, first PapG operon), N96S removes non-native glycosylation, His-tagged; SEQ ID NO: 13 (protein)
chain: METDTLLLWVLLLWVPGSTGWNNIVFYSLGNVNSYQGGNVVITQRPQFITSWRPGIATVTWNQCNGPEFADGSWAYYREYIAWVVFPKKVMTKNGYPLFIEVHNKGSWSEENTGDSDSYFFLKGYKWDERAFDAGNLCQKPGETTRLTEKFNDIIFKVALPADLPLGDYSVTIPYTSGIQRHFASYLGARFKIPYNVAKTLPRENEMLFLFKNIGG
modifications: His tag
B2: PapG^DSF N96S N242S N286S: Full-length donor strand complemented PapG, fully aglycosylated at N96S, N242S and N286S, His-tagged (protein)
chain: WNNIVFYSLGNVNSYQGGNVVITQRPQFITSWRPGIATVTWNQCNGPEFADGSWAYYREYIAWVVFPKKVMTKNGYPLFIEVHNKGSWSEENTGDSDSYFFLKGYKWDERAFDAGNLCQKPGETTRLTEKFNDIIFKVALPADLPLGDYSVTIPYTSGIQRHFASYLGARFKIPYNVAKTLPRENEMLFLFKNIGGCRPSAQSLEIKHGDLSINSANNHYAAQTLSVSCDVPANIRFMLLRSTTPTYSHGKKFSVGLGHGWDSIVSVNGVDTGETTMRWYKAGTQSLTIGSRLYGESSKIQPGVLSGSATLLMILPGGSSGGADVQINIRGNVYIPP
B3: BMD576_PapG-DSF K172A_Thy1-GPI: monovalent PapG modRNA LNP; RNA construct SEQ ID NO: 66 (nucleic acid)
chain: AGGAGGACUGGUCGAACCUGCAUAGUGAUCAUAAGGUCAGCAUAGCCACCAUGGAGACCGACACCCUCCUGCUGUGGGUGCUGUUACUGUGGGUGCCCGGUAGCACCGGCUGGAACAACAUCGUGUUCUACAGCCUGGGCAACGUGAACAGCUACCAAGGCGGCAACGUGGUGAUCACACAGAGACCUCAGUUCAUCACAAGCUGGAGACCCGGCAUCGCCACCGUGACCUGGAAUCAGUGCAACGGCCCCGAGUUCGCCGACGGCAGCUGGGCCUACUACAGAGAGUACAUCGCCUGGGUGGUGUUCCCCAAGAAGGUGAUGACCAAGAACGGCUACCCCCUGUUCAUCGAGGUGCACAACAAGGGCAGCUGGAGCGAGGAGAACACCGGCGACAGCGACAGCUACUUCUUCCUGAAGGGCUACAAGUGGGACGAGAGAGCCUUCGACGCCGGCAACCUGUGUCAGAAGCCGGGGGAGACCACAAGACUUACCGAGAAGUUCAACGACAUCAUCUUCAAGGUGGCCCUGCCCGCCGACCUGCCCCUGGGCGACUACAGCGUGACCAUCCCCUACACAAGCGGCAUUCAGAGACACUUCGCUAGCUACCUGGGCGCUAGAUUCGCCAUCCCCUACAACGUGGCCAAGACCCUGCCUAGAGAGAACGAGAUGCUGUUCCUGUUCAAGAACAUCGGCGGCUGCAGACCUAGCGCUCAGAGCCUGGAGAUCAAGCACGGCGACCUGAGCAUCAACAGCGCCAACAACCACUACGCCGCUCAGACCCUGAGCGUGAGCUGCGACGUGCCCGCCAACAUCAGAUUCAUGCUGCUGAGAUCAACCACCCCCACCUACAGCCACGGCAAGAAGUUCAGCGUGGGCCUGGGCCACGGCUGGGACAGCAUCGUGAGCGUGAACGGCGUGGACACGGGCGAGACCACUAUGCGUUGGUACAAGGCCGGCACACAGAGCCUGACCAUCGGCAGCAGACUGUAUGGCGAAAGCUCCAAAAUCCAACCCGGCGUGCUGUCGGGGAGCGCCACCCUGCUGAUGAUACUGCCCGGAGGCAGCAGCGGCGGCGCCGACGUGCAGAUCAACAUCAGAGGCAACGUGUAUAUUCCGCCUAGCAGUGGUGGUGGGGGUAGCUCCGGCUCCGGAAGCAGCUGCGAGGGCAUCAGCCUGCUGGCUCAGAACACAAGCUGGCUGCUGCUGCUGCUGCUGAGCCUGAGCCUGCUGCAAGCCACCGACUUCAUGAGCCUGUGAUGAGCUCGCUUUCUUGCUGUCCAAUUUCUAUUAAAGGUUCCUUUGUUCCCUAAGUCCAACUACUAAACUGGGGGAUAUUAUGAAGGGCCUUGAGCAUCUGGAUUCUGCCUAAUAAAAAACAUUUAUUUUCAUUGCAAAAAAAAAAAAAAAAAAAAAAAAAAAAAAAAAAAAAAAAAAAAAAAAAAAAAAAAAAAAAAAAAAAAAAAAAAAAAAAAAA
modifications: modRNA in LNP

What was measured:
[1] = Thermal shift (SYPRO orange) melting temperature, apo form; format: physicochemical; details: apo state, PBS pH 7.4
Method: PapG proteins were added to assay buffer (consisting of 4% DMSO, 1:1000 dilution of SYPRO orange (Invitrogen S6650) in PBS pH 7.4) at a final concentration of […]. Melt curves were analyzed in a QuantStudio 6 Real-time PCR system (ThermoFisher) using a dissociation protocol from 25° C. to 99° C., at 0.05° C./second. ROX was specified as the reporter.
The thermal stability of PapG WT and mutant proteins were determined using a SYPRO orange thermal shift-based differential scanning fluorimetry assay, wherein Tm designates the temperature at which 50% of the protein is unfolded. Non-covalent ligands often stabilize protein targets upon specific binding, resulting in an increase in protein melting temperature. Tm were therefore determined in the presence and absence of GbO3 for PapG, and the difference in Tm (ΔTm) of protein in the presence of ligand relative to the apo form was calculated.

[2] = system: E. coli strain CFT073 expressing the fimbrial adhesin PapG; test: PapG hemagglutination inhibition (HAI) assay on sera of mice immunized with PapG modRNA LNPs; format: in vivo; details: 1 μg, 50 μl IM
From the text: Escherichia coli to the uroepithelium of human kidney. The PapG lectin binds to the globoside (GbO4) glycolipid, which is enriched in urinary tract tissue and consists of the tetrasacharide GalNAcβ1-3Galα1-4Galβ1-4Glc linked to ceramide. Here we present the use of a hemagglutination inhibition assay (HAI) to determine vaccine functional responses to protein subunit PapG or mRNA-expressed PapG antigens. In this assay the agglutination of human red blood cells (hRBCs) expressing GbO4 is caused by live E. coli CFT073 bacteria expressing PapG. The HAI assay measures the ability of PapG-elicited antibodies to prevent hRBC agglutination, exemplifying inhibition of the key bacterial adherence mechanism leading to clinical pyelonephritis. The assay was used to characterize the functional activity of PapG monoclonal antibodies (mAbs) raised against a PapG lectin domain subunit antigen. PapG HAI data from a mouse immunogenicity study are described that evaluated various 5 monovalent PapG modRNA LNPs and a PapG subunit comparator.
In this mouse study immunogenicity of different PapG mRNA constructs were evaluated. […]
iii. PapG Hemagglutination Inhibition Assay (HAI) 1. Preparation of Single Use Frozen E. coli CFT073 Banks Frozen bacterial stocks for use in the PapG HAI are stored at a concentration of ˜15 OD/mL. For stock preparation, take 6 ×100 μL of frozen parental strain CFT073 glycerol stock to seed six overnight cultures with ˜85 mL Luria's Broth (LB) each in 250 mL vented flasks. Flasks are shaken at 200 rpm and 37° C. overnight. On the same day, prepare 100 mL LB media with 30% glycerol and 0.4% sucrose by mixing […] 80% Glycerol with 0.8 mL 50% Sucrose in 64 mL LB and pre-chill at 4° C. After ˜16 h growth, determine the OD600 nm of each flask with the SpectraMax M5e plate reader by adding 100 μL culture to 900 μL LB (1:10 dilution). After reading the OD600, harvest cells by pelleting in a centrifuge at 4,000g, 4° C., for 30 minute. Determine the total OD of each of the six flasks, by multiplying the volume by OD/mL of each flask and divide by 15 OD to give the appropriate pellet resuspension volume. Discard supernatants and resuspend all pellets in the pre-chilled LB cryopreservant containing 30% glycerol and 0.4% sucrose, with a final volume as calculated above. Pool all resuspended pellets and mix gently, then aliquot into 1 mL/cryotube, and freeze at −70° C.
2. Preparing 10% hRBC Working Solution From Stock
Gently mix human red blood cells (hRBC) bottle (Rockland) by rocking ˜20×times, pipet out 10 mL of the hRBCs into a 15 ml conical tube. Centrifuge at 2,000 rpm(˜990×g) for 10 minutes and 4° C. Aspirate and discard the supernatant, then resuspend the pellet with 9 mL 4° C. PBS. The packed hRBCs in 15 mL conical tube should constitute roughly 1 mL of this total volume. Store these 10% hRBCs at 4° C. until use. […]
iv. PapG Hemagglutination Inhibition (HAI) Assay
The PapG hemagglutination inhibition (HAI) assay uses human red blood cells (hRBCs), which naturally express the PapG ligand GbO4 (globotetraosyl ceramide) on the cell surface, and the E. coli strain CFT073 expressing the fimbrial adhesin PapG. Upon mixing bacteria with hRBCs, […] cells remain suspended (presenting as a cloudy well), while no binding results in the red blood cells falling out of solution towards the center of the well (observed as pellet).
The total final well volume is 100 μL, with serum dilutions comprising 25 μL of this volume, strain CFT073 cells in […] volume, and hRBCs in a 50 μL volume. The assay plate is a V-bottom plate to which 25 μL 4° C. PBS is initially added to all wells. The positive control wells receive an additional 25 μL 4° C. PBS. The no-serum negative control consists of E. coli CFT073 cells plus hRBCs only (resulting agglutinated well appears cloudy). To accommodate pre-diluted sera transferred from the serum Master Dilution plate (MDP) an extra 5 μL 4° C. PBS is added to wells in Row A of the assay plate (columns 1 to 12). […]

Row | Molecule | Tm (Ave.) [1] | Step Titer GMT (HAI) ([2]; weeks 0, 4, bleed week 6, GMT of individual titers) | Step Titer Pool (HAI) ([2]; weeks 0, 4, bleed week 6, serum pool)
1 | B1 | 61.29 °C |  | 
2 | B2 | 61.82 °C |  | 
3 | B3 |  | 85,681 | 81,000
